Laboratory results published in paper PMC3201873.

Experiments:
[1] = biological target: full-length GyrB from M. tuberculosis (M. tuberculosis); test: far-Western, overlay or dot blot
[2] = biological target: GyrA–SBP (GyrA fused to a Streptavidin-Binding Peptide) (M. tuberculosis) (UniProt P9WG47); test: SPR

Chain of full-length GyrB from M. tuberculosis (M. tuberculosis) (A5TY73 whole entry, the tested form may be a part): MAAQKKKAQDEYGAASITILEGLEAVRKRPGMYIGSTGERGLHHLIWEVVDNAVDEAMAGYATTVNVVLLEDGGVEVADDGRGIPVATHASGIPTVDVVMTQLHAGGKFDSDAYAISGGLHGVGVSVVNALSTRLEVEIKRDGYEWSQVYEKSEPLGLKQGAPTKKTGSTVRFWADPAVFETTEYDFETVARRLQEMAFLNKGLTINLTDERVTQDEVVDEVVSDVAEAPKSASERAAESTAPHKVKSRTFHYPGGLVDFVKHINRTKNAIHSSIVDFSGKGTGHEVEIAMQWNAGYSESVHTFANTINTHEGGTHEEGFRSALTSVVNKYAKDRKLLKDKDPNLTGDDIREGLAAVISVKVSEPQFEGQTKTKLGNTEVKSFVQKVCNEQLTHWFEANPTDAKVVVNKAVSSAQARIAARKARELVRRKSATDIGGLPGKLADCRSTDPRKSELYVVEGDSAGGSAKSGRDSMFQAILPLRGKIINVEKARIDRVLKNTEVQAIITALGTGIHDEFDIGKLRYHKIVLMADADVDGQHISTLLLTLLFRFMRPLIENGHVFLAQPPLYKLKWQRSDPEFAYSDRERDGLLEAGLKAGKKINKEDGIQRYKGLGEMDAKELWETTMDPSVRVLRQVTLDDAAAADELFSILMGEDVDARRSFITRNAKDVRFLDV

Substance | fold stronger with negatively supercoiled pBR322 than without DNA [1] [fold] | Ka [2] [M⁻¹] | koff [2] [s⁻¹]
GyrA–SBP (GyrA fused to a Streptavidin-Binding Peptide) (from UniProt P9WG47 1-838) (natural protein) | 9 | – | –
full-length GyrB from M. tuberculosis (natural protein) | – | 6.2e+07 | 0.00101
